One may read the Km as the concentration of substrate that gives half-maximal velocity. The kcat is the maximal rate divided by the concentration of active sites.

The results in this text go back to publication PMC4313731 (Chemistry & biology, 2013).

In one series the target is PhnY (Sinorhizobium meliloti, UniProt Q92UV7). The series can be described thus: X-ray crystal structure of ternary complex with NAD+, […] Å. Format: binding. To be noted: NAD+ bound; active site, non-covalent.
Substrate in series [1]: O=CC(O)COP(=O)(O)O
The series can be described thus: steady-state kinetics, NADP+ reduction monitored. Type of series: biochemical, Streptococcus mutans. To be noted: racemic G3P, saturating NADP+, 50 mM HEPES pH 8.0, 5 mM DTT.

Substrate in series [2]: O=CCCP(=O)(O)O
The series can be described thus: steady-state kinetics, NADP+ reduction monitored. To be noted: saturating NADP+, 50 mM HEPES pH 8.0, 5 mM DTT. Format: biochemical, Streptococcus mutans.

Substrate in series [3]: O=CCP(=O)(O)O
The series can be described thus: steady-state kinetics, NAD+ reduction monitored. Type of series: biochemical, Sinorhizobium meliloti. To be noted: saturating NAD+, 50 mM HEPES pH 7.5, 10 mM MgSO4, 30 °C.

Substrate in series [4]: O=CCCP(=O)(O)O
The series can be described thus: steady-state kinetics, NAD+ reduction monitored. Type of series: biochemical, Sinorhizobium meliloti. To be noted: 50 mM HEPES pH 7.5, 10 mM MgSO4, 30 °C.

Turning to `O=C(O)CP(=O)(O)O` [PnA], the “X-ray crystal structure of ternary complex with NAD+, 2.07 Å” value on PhnY is “cocrystal structure of PhnY in complex with NAD^+ and PnA shows clear and continuous density”.

B1: GAPDH (Streptococcus mutans UA159) (protein)
chain: MTKQYKNYVNGEWKLSENEIKIYEPASGAELGSVPAMSTEEVDYVYASAKKAQPAWRSLSYIERAAYLHKVADILMRDKEKIGAVLSKEVAKGYKSAVSEVVRTAEIINYAAEEGLRMEGEVLEGGSFEAASKKKIAVVRREPVGLVLAISPFNYPVNLAGSKIAPALIAGNVIAFKPPTQGSISGLLLAEAFAEAGLPAGVFNTITGRGSEIGDYIVEHQAVNFINFTGSTGIGERIGKMAGMRPIMLELGGKDSAIVLEDADLELTAKNIIAGAFGYSGQRCTAVKRVLVMESVADELVEKIREKVLALTIGNPEDDADITPLIDTKSADYVEGLINDANDKGAAALTEIKREGNLICPILFDKVTTDMRLAWEEPFGPVLPIIRVTSVEEAIEISNKSEYGLQASIFTNDFPRAFGIAEQLEVGTVHINNKTQRGTDNFPFLGAKKSGAGIQGVKYSIEAMTTVKSVVFDIK
For B1, in series [1], the Km amounted to 25 ± 7 µM and the kcat was 22 ± 2 s⁻¹. Besides, in series [2], the Michaelis constant (Km) was 1500 ± 300 µM and the kcat turned out to be 0.038 ± 0.022 s⁻¹.

B2: PhnY (Sinorhizobium meliloti 1021; R447A) (protein)
chain: MTNAEVTIAVRHEPMRIAGRLVDTDDRVEVRYPWNDTVVGTVPAGRAEHAREAFAIAAAYQPKLTRYERQKILLATAEALAARKEEISDVITLELGISKADSLYEVGRAFDVFTLAGQMCIRDDGEIFSCDLTPHGKARKIFTMREPLTAISAITPFNHPLNMVAHKVAPAIATNNCVVVKPTELTPMTALLLADILYEAGLPPEMLSVVTGWPADIGMEMITNPHVDLVTFTGSVPVGKLIAANAHYKRQVLELGGNDPLIILNDLSDDDLARAADLAVAGATKNSGQRCTAVKRILCQESVADRFVPLVLERAKRLRFGDPMDRSTDLGTVIHEKAAALFEERVMRAAEEGADILYHPGRSGALLPPIVVDRVPHQSDLVLEETFGPIIPIVRVPDDDDATITLSNSTAFGLSSGVCTNDYRRMQKYIAGLKVGTVNIWEVPGYAIEMSPFGGIKDSGNGYKEGVIEAMKSFTNVKTFSLPWP
In the case of B2, in series [3], the Km is on record as 150 ± 20 µM and the kcat was determined as 0.076 ± 0.003 s⁻¹.

B3: PhnY (Sinorhizobium meliloti 1021) (protein)
chain: MTNAEVTIAVRHEPMRIAGRLVDTDDRVEVRYPWNDTVVGTVPAGRAEHAREAFAIAAAYQPKLTRYERQKILLATAEALAARKEEISDVITLELGISKADSLYEVGRAFDVFTLAGQMCIRDDGEIFSCDLTPHGKARKIFTMREPLTAISAITPFNHPLNMVAHKVAPAIATNNCVVVKPTELTPMTALLLADILYEAGLPPEMLSVVTGWPADIGMEMITNPHVDLVTFTGSVPVGKLIAANAHYKRQVLELGGNDPLIILNDLSDDDLARAADLAVAGATKNSGQRCTAVKRILCQESVADRFVPLVLERAKRLRFGDPMDRSTDLGTVIHEKAAALFEERVMRAAEEGADILYHPGRSGALLPPIVVDRVPHQSDLVLEETFGPIIPIVRVPDDDDATITLSNSTAFGLSSGVCTNDYRRMQKYIAGLKVGTVNIWEVPGYRIEMSPFGGIKDSGNGYKEGVIEAMKSFTNVKTFSLPWP
B3: in series [4], the Michaelis constant (Km) stood at 3300 ± 100 µM and the turnover number (kcat) is 1.5 ± 0.1 s⁻¹.

B4: PhnY (Sinorhizobium meliloti 1021; R108A) (protein)
chain: MTNAEVTIAVRHEPMRIAGRLVDTDDRVEVRYPWNDTVVGTVPAGRAEHAREAFAIAAAYQPKLTRYERQKILLATAEALAARKEEISDVITLELGISKADSLYEVGAAFDVFTLAGQMCIRDDGEIFSCDLTPHGKARKIFTMREPLTAISAITPFNHPLNMVAHKVAPAIATNNCVVVKPTELTPMTALLLADILYEAGLPPEMLSVVTGWPADIGMEMITNPHVDLVTFTGSVPVGKLIAANAHYKRQVLELGGNDPLIILNDLSDDDLARAADLAVAGATKNSGQRCTAVKRILCQESVADRFVPLVLERAKRLRFGDPMDRSTDLGTVIHEKAAALFEERVMRAAEEGADILYHPGRSGALLPPIVVDRVPHQSDLVLEETFGPIIPIVRVPDDDDATITLSNSTAFGLSSGVCTNDYRRMQKYIAGLKVGTVNIWEVPGYRIEMSPFGGIKDSGNGYKEGVIEAMKSFTNVKTFSLPWP
Take B4: in series [3], the Km is reported as 9.7 ± 0.8 µM and the kcat came to 0.051 ± 0.001 s⁻¹.

B5: PhnY (Sinorhizobium meliloti 1021; R290A) (protein)
chain: MTNAEVTIAVRHEPMRIAGRLVDTDDRVEVRYPWNDTVVGTVPAGRAEHAREAFAIAAAYQPKLTRYERQKILLATAEALAARKEEISDVITLELGISKADSLYEVGRAFDVFTLAGQMCIRDDGEIFSCDLTPHGKARKIFTMREPLTAISAITPFNHPLNMVAHKVAPAIATNNCVVVKPTELTPMTALLLADILYEAGLPPEMLSVVTGWPADIGMEMITNPHVDLVTFTGSVPVGKLIAANAHYKRQVLELGGNDPLIILNDLSDDDLARAADLAVAGATKNSGQACTAVKRILCQESVADRFVPLVLERAKRLRFGDPMDRSTDLGTVIHEKAAALFEERVMRAAEEGADILYHPGRSGALLPPIVVDRVPHQSDLVLEETFGPIIPIVRVPDDDDATITLSNSTAFGLSSGVCTNDYRRMQKYIAGLKVGTVNIWEVPGYRIEMSPFGGIKDSGNGYKEGVIEAMKSFTNVKTFSLPWP
With B5, in series [3], the Km is 5.1 ± 0.6 µM and the kcat came out at 0.12 ± 0.003 s⁻¹.

B6: PhnY (Sinorhizobium meliloti 1021; N158A) (protein)
chain: MTNAEVTIAVRHEPMRIAGRLVDTDDRVEVRYPWNDTVVGTVPAGRAEHAREAFAIAAAYQPKLTRYERQKILLATAEALAARKEEISDVITLELGISKADSLYEVGRAFDVFTLAGQMCIRDDGEIFSCDLTPHGKARKIFTMREPLTAISAITPFAHPLNMVAHKVAPAIATNNCVVVKPTELTPMTALLLADILYEAGLPPEMLSVVTGWPADIGMEMITNPHVDLVTFTGSVPVGKLIAANAHYKRQVLELGGNDPLIILNDLSDDDLARAADLAVAGATKNSGQRCTAVKRILCQESVADRFVPLVLERAKRLRFGDPMDRSTDLGTVIHEKAAALFEERVMRAAEEGADILYHPGRSGALLPPIVVDRVPHQSDLVLEETFGPIIPIVRVPDDDDATITLSNSTAFGLSSGVCTNDYRRMQKYIAGLKVGTVNIWEVPGYRIEMSPFGGIKDSGNGYKEGVIEAMKSFTNVKTFSLPWP
B6: in series [3], the Km was determined as 29 ± 9 µM and the kcat was determined as 0.010 ± 0.001 s⁻¹.
